Source: paper PMC3437550

Target: Torpedo californica nicotinic acetylcholine receptor (Torpedo californica) (UniProt P02710)
Assay: SEC

- percent dimer: 72.7%
Substance: Torpedo californica nicotinic acetylcholine receptor (from UniProt P02710 25-461; P02712 25-493; P02714 18-506; P02718 22-522) (complex)
